Reference: IntAct's records for PubMed 15479639

B1: Chaperone ric-8 (Caenorhabditis elegans), Q9GSX9-1 (parent)
chain: MSEELHSDLIASIFGGKPAKIEEFFSKWNFANAAVSKFDMANSAKNELGDRICEVIENGELTHVLLETIKILSREKDGLEGLLNDPLCDKILAFAELSSNENNSKTVHTLMEAQKCLINTLFHSQRMRDRFYANPKTGENLQFFLGEFEENRRKTSSIDWIRLLNPVQAAEIWYFYHRIAFIATALGREFQKNWANDPKTIDSLLLAVEICTNRSENSTQDINRATEALKTFFNVFCHFHGDVKAIDHKNAAKTCQILRDAICSDVLTDDVVQSAIHCLSVPPLPMVLSVLCGKNSKNNGGENEEEKFFVEELSNMQLTEAILMHLDKQLTKVVALLLNDAPNQQQNPMLSAEASTLTDLVGPYFQVLARLCTDSKYVRRYCRIRVIPPLVSEEVQKRPEENNTLRGRIARIMMLPSSTKDVAAEFLFIICKRSVNRMIKYLGFGHSAGHLANLGLLGQINQPKHASDSEDSETEDYNQIKDSVNPVTGAIYPSDHGSALAGMSEEQKEYEAMKLVDAMNQMMETGIVKPGTIGDDGKIREVSHVLELLKNAPEPAPAENSDSDEE

Variants of: B1
Conditions: with gnao_caeel goa-1, P51875
Chain of gnao_caeel goa-1, P51875 (P51875 whole entry): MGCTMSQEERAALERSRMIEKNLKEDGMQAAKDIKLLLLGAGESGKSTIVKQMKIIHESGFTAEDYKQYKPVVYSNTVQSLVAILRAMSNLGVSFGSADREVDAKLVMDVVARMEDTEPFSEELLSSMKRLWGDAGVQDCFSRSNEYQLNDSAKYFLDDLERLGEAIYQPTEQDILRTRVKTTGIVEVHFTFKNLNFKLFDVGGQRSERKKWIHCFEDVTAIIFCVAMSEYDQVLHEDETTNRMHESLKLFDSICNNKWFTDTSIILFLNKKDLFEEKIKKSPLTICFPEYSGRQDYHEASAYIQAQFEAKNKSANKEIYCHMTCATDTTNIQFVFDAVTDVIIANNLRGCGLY

| effect of a mutation on the interaction | Variant |
| --- | --- |
| increasing interaction | MSEELHSDLIASIFGGKPAKIEEFFSKWNFANAAVSKFDMANSAKNELGDRICEVIENGELTHVLLETIKILSREKDGLEGLLNDPLCDKILAFAELSSNENNSKTVHTLMEAQKCLINTLFHSQRMRDRFYANPKTGENLQFFLGEFEENRRKTSSIDWIRLLNPVQAAEIWYFYHRIAFIATALGREFQKNWANDPKTIDSLLLAVEICTNRSENSTQDINRATEALKTFFNVFCHFHGDVKAIDHKNAAKTCQILRDAICSDVFTDDVVQSAIHCLSVPPLPMVLSVLCGKNSKNNGGENEEEKFFVEELSNMQLTEAILMHLDKQLTKVVALLLNDAPNQQQNPMLSAEASTLTDLVGPYFQVLARLCTDSKYVRRYCRIRVIPPLVSEEVQKRPEENNTLRGRIARIMMLPSSTKDVAAEFLFIICKRSVNRMIKYLGFGHSAGHLANLGLLGQINQPKHASDSEDSETEDYNQIKDSVNPVTGAIYPSDHGSALAGMSEEQKEYEAMKLVDAMNQMMETGIVKPGTIGDDGKIREVSHVLELLKNAPEPAPAENSDSDEE [L267F] |
| decreasing interaction | MSEELHSDLIASIFGGKPAKIEEFFSKWNFANAAVSKFDMANSAKNELGDRICEVIENGELTHVLLETIKILSREKDGLEGLLNDPLCDKILAFAELSSNENNSKTVHTLMEAQKCLINTLFHSQRMRDRFYANPKTGENLQFFLGEFEENRRKTSSIDWIRLLNPVQAAEIWYFYHRIAFIATALGREFQKNWANDPKTIDSLLLAVEICTNRSENSTQDINRATEALKTFFNVFCHFHGDVKAIDHKNAAKTCQILRDAICSDVLTDDVVQSEIHCLSVPPLPMVLSVLCGKNSKNNGGENEEEKFFVEELSNMQLTEAILMHLDKQLTKVVALLLNDAPNQQQNPMLSAEASTLTDLVGPYFQVLARLCTDSKYVRRYCRIRVIPPLVSEEVQKRPEENNTLRGRIARIMMLPSSTKDVAAEFLFIICKRSVNRMIKYLGFGHSAGHLANLGLLGQINQPKHASDSEDSETEDYNQIKDSVNPVTGAIYPSDHGSALAGMSEEQKEYEAMKLVDAMNQMMETGIVKPGTIGDDGKIREVSHVLELLKNAPEPAPAENSDSDEE [A275E] |
